Results published in publication PMC2944823, “Structural Basis for the Secretion of EvpC: A Key Type VI Secretion System Protein from Edwardsiella tarda” (PLoS ONE, 2010).
Changes are numbered by the printed parent chain. Numbers in names are those of the source. Where “and” joins values, the source holds several entries; their conditions need not be identical. Equal values may be shown once.

B1: EvpC from Edwardsiella tarda PPD130/91, wild type, recombinant with 6His tag at C terminus (pETMevpC) (natural protein)
chain: MAFDTYIKLDKVDGESTDDKHKKWIEVLGFAWGAGNECTMESGTQGLNTGKAMMSVLRVTKWMDCASVKLASAAVQGQNFPTLELEICTQAGDKFAFCIYKFTHVAVSSYQCSGATGGSDRPQETIDFAYKEVTWEYVPQDQNGKAGGKIGPEGWSLITNKKK
modifications: selenomethionine (cells grown in defined M9 medium supplemented with 25 mg/L SelMet)
notes: EvpC, Hcp homolog of the type VI secretion system (EVP cluster), Edwardsiella tarda PPD130/91; evpC gene amplified from genomic DNA; crystal model holds Ala2 to Lys163; K161-K163 are called the C-terminal residues and the model ends at Lys163, so the whole protein (163 residues) is likely. pETM is a pET32 derivative; no other vector-derived residues are told; also called wild type EvpC; Hcp …
B2: EvpC D4A E15A double mutant, 6His tag at C terminus (pETMevpC D4AE15A) (natural protein)
chain: B1 chain with D4A, E15A
notes: EvpC, Edwardsiella tarda PPD130/91, with D4 and E15 substituted with Ala; The text speaks only of 'double' mutants for the gel filtration; source: expressed (pETM plasmid)
B3: EvpC D4A E26A double mutant, 6His tag at C terminus (pETMevpC D4AE26A) (natural protein)
chain: B1 chain with D4A, E26A
notes: EvpC, Edwardsiella tarda PPD130/91, with D4 and E26 substituted with Ala; The text speaks only of 'double' mutants for the gel filtration; source: expressed (pETM plasmid)
B4: EvpC D4A E15A E26A triple mutant (natural protein)
chain: B1 chain with D4A, E15A, E26A
notes: EvpC, Edwardsiella tarda PPD130/91, with D4, E15 and E26 substituted with Ala; also called N-terminal triple mutant; N-terminal mutant; source: expressed
B5: EvpC E15A E26A double mutant, 6His tag at C terminus (pETMevpC E15AE26A) (natural protein)
chain: B1 chain with E15A, E26A
notes: EvpC, Edwardsiella tarda PPD130/91, with E15 and E26 substituted with Ala; The text speaks only of 'double' mutants for the gel filtration; source: expressed (pETM plasmid)
B6: EvpC C-terminal deletion mutant (EvpC M1-N160), K161 K162 K163 deleted (domain or fragment)
chain: MAFDTYIKLDKVDGESTDDKHKKWIEVLGFAWGAGNECTMESGTQGLNTGKAMMSVLRVTKWMDCASVKLASAAVQGQNFPTLELEICTQAGDKFAFCIYKFTHVAVSSYQCSGATGGSDRPQETIDFAYKEVTWEYVPQDQNGKAGGKIGPEGWSLITN
notes: EvpC, Edwardsiella tarda PPD130/91, residues M1-N160, lacking the C-terminal K161, K162 and K163; also called EvpC 1-160; C-terminal mutant; source: expressed

Key:
[1] = target: the molecule itself; assay: AUC; sedimentation velocity, ~2 mg/ml (methods: 2.5 mg/ml), 10 mM Tris-HCl pH 7.0, 200 mM NaCl, with and without DTT, 40,000 rpm, 20°C, absorbance at 280 nm, Sedfit; self-association, dimer and hexamer
[2] = target: the molecule itself; assay: dynamic light scattering; DynaPro instrument, room temperature, EvpC at 6 mg/ml; polydispersity 5%
[3] = target: the molecule itself; assay: SEC; gel filtration (Hiload 16/60 Superdex 75) of EvpC wild type and mutants at 2 mg/ml; self-association, hexamer

Protein | stoichiometry N [1] | stoichiometry N [2] | stoichiometry N [3]
B1 | 2 and 6 | 12 | –
B2 | – | – | 6
B3 | – | – | 6
B4 | – | – | 6
B5 | – | – | 6
B6 | – | – | 6
